Drawing on PMC3810402, this text covers Kd for two molecules.

Common to all, as to settings: modification not given
For assay [1], the target named is MDM2 (synMDM2) 25-109 (Homo sapiens), Q00987. Description: SPR. In general terms: Surface plasmon resonance follows binding to a sensor surface in real time, without labels.
Assay [2] addresses T1, MDMX (synMDMX) 24-108 (Homo sapiens), O15151.
T1 chain: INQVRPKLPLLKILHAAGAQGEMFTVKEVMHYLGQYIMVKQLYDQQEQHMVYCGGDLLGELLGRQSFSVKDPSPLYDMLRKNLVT
Description: SPR.

Assay [3] addresses MDM2 (synMDM2) 25-109 (Homo sapiens), Q00987. In words: SPR. The source holds these as a separate data set.
The target is the same in assay [4]. Description: SPR direct.

Sequence of MDM2 (synMDM2) 25-109 (Homo sapiens), Q00987 (Q00987 25-109): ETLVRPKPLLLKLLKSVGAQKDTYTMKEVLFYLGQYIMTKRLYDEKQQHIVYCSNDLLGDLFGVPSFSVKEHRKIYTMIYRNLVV

A word on the Kd: it is a measure of binding affinity in units of concentration. Read a high Kd as a looser complex. Consider CYSFDCLWKCLAMGFSSGKCINSKCKC [stoppin-1], for which the Kd in assay [1] was 790 nM; in assay [2] it was 994 nM; in assay [3], 320 nM.

In assay [4], CYSFDCLWKCLAMGFRRGKCRRRKCKC [stoppin-2] registered a Kd of 493 nM.
